According to article PMC12263435, “Mechanistic basis for PYROXD1-mediated protection of the human tRNA ligase complex against oxidative inactivation” (Nature Structural & Molecular Biology, 2025):

Tests used:
RTCB–PYROXD1 complex = target: T1, RTCB–PYROXD1 complex (Homo sapiens, UniProt Q8WU10); test: cryo-EM structure, […] Å; assay type: binding; settings: prepared with 0.5 mM NADH, 5 mM MgCl2, pH 8.0, redox state NAD+ inferred (charge-transfer complex), PYROXD1 active site
T1 construct: PYROXD1 (GST cut, E. coli) with RTCB (N-terminal tag cut by TEV, Sf9); 1:1 complex with Mg2+ in RTCB; with RNA-splicing ligase RtcB homolog
T1 sequence (Q8WU10 1-500): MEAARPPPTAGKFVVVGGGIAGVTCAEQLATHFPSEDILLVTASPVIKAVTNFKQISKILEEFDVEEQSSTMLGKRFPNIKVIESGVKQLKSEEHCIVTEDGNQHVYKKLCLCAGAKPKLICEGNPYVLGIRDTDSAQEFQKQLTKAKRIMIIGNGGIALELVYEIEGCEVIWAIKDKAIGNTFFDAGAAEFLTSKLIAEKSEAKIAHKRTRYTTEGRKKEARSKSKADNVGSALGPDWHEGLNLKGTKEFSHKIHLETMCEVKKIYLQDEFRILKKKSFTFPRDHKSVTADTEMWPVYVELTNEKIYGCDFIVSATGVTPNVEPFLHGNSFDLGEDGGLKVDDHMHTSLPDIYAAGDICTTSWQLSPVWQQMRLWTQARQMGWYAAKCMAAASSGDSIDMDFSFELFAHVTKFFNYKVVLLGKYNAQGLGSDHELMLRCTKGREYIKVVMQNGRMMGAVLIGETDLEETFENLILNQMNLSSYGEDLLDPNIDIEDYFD
T1 sequence (Q9Y3I0 1-505 partner): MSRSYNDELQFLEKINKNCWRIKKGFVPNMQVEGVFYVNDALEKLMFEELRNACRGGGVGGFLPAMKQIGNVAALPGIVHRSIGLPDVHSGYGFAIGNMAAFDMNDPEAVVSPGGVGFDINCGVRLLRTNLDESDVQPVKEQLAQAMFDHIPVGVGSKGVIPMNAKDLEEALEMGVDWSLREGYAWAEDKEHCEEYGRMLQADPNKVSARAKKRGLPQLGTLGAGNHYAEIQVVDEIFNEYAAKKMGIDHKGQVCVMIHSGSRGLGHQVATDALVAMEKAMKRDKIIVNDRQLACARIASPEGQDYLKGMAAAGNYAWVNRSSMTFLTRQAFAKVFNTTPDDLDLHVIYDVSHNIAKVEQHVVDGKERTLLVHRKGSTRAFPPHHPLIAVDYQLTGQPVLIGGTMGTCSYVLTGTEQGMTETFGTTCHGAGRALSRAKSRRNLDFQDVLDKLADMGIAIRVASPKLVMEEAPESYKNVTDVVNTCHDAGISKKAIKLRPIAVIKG

StrepII–GFP–RTCB = target: T2, StrepII–GFP–RTCB (human, UniProt Q9Y3I0 1-505); test: pull-down; StrepII–GFP–RTCB (0.2 nmol) immobilised on MagStrep type 3 XT beads, 0.4 nmol PYROXD1; HEPES pH 8.0, 150 mM KCl, 0.1% Tween-20, 1 mM TCEP, 0.5 mM NADH, 2.5 mM MgCl2, 2.5 mM MnCl2; 30 min at 4 °C; SDS–PAGE, Coomassie Blue; settings: both partners purified
T2 construct: human RTCB (UniProt Q9Y3I0), catalytic subunit of the tRNA ligase complex; inserted into the 438-Rgfp plasmid; a TEV site lies between GFP and RTCB; In the dissociation assay it is called 2× StrepII–GFP–RTCB; also called immobilized RTCB; 2× StrepII–GFP–RTCB; source: Sf9 insect cells (baculovirus), purified (Strep-Tactin, SEC); not shown: StrepII, N-terminal, kept; super folder green fluorescent …
T2 sequence: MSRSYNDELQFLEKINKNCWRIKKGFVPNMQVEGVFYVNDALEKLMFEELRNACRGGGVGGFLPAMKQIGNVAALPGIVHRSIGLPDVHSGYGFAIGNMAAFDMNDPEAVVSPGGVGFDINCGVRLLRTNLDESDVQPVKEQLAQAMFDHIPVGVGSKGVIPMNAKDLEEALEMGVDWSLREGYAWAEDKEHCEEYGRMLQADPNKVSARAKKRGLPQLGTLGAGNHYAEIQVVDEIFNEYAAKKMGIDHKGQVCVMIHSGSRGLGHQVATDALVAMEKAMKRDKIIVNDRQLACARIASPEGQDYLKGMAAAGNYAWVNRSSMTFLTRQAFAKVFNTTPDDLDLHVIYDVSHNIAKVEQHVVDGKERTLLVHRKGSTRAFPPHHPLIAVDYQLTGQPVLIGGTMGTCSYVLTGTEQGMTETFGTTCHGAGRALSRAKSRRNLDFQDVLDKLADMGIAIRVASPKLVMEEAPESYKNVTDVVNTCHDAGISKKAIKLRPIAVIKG

purified protein = substrate: NC(=O)C1=CN([C@@H]2O[C@H](COP(=O)(O)OP(=O)(O)OC[C@H]3O[C@@H](n4cnc5c(N)ncnc54)[C@H](O)[C@@H]3O)[C@@H](O)[C@H]2O)C=CC1; test: purified protein; assay type: biochemical, Homo sapiens; settings: aerobic (O2 as acceptor), 20 mM Tris-HCl pH 8.0, 150 mM KCl, 0.05% Tween-20, 22 °C, text prints W293A, figure legend W239A

Molecule | binding result (StrepII–GFP–RTCB) | also measured
NC(=O)c1ccc[n+]([C@@H]2O[C@H](COP(=O)(O)OP(=O)(O)OC[C@H]3O[C@@H](n4cnc5c(N)ncnc54)[C@H](O)[C@@H]3O)[C@@H](O)[C@H]2O)c1 [NAD^+] | – | cryo-EM structure, 3.3 Å (RTCB–PYROXD1 complex): NAD^+ interacts with residues Gly157, Ile158, Arg374, His410 and Thr412
Cc1cc2c(cc1C)N(C[C@H](O)[C@H](O)[C@H](O)COP(=O)(O)OP(=O)(O)OC[C@H]1O[C@@H](n3cnc4c(N)ncnc43)[C@H](O)[C@@H]1O)c1[nH]c(=O)[nH]c(=O)c1N2 [FADH^−] | – | cryo-EM structure, 3.3 Å (RTCB–PYROXD1 complex; redox state FADH- inferred): PYROXD1 coordinates FADH^− with residues including Gly18, Ala21, Thr42, Ala43
PYROXD1 ∆500 (domain or fragment, human, UniProt Q8WU10 1-499, looked up, human PYROXD1 (UniProt Q8WU10), C-terminal truncation ∆500 (lacks the C-terminal residue Asp500); source: E. coli BL21(DE3), purified (Glutathione Sepharose, 3C cleavage, SEC); not shown: GST, N-terminal, cleaved) MEAARPPPTAGKFVVVGGGIAGVTCAEQLATHFPSEDILLVTASPVIKAVTNFKQISKILEEFDVEEQSSTMLGKRFPNIKVIESGVKQLKSEEHCIVTEDGNQHVYKKLCLCAGAKPKLICEGNPYVLGIRDTDSAQEFQKQLTKAKRIMIIGNGGIALELVYEIEGCEVIWAIKDKAIGNTFFDAGAAEFLTSKLIAEKSEAKIAHKRTRYTTEGRKKEARSKSKADNVGSALGPDWHEGLNLKGTKEFSHKIHLETMCEVKKIYLQDEFRILKKKSFTFPRDHKSVTADTEMWPVYVELTNEKIYGCDFIVSATGVTPNVEPFLHGNSFDLGEDGGLKVDDHMHTSLPDIYAAGDICTTSWQLSPVWQQMRLWTQARQMGWYAAKCMAAASSGDSIDMDFSFELFAHVTKFFNYKVVLLGKYNAQGLGSDHELMLRCTKGREYIKVVMQNGRMMGAVLIGETDLEETFENLILNQMNLSSYGEDLLDPNIDIEDYF | binds | –
PYROXD1 ∆E496 (enzyme, human, source: E. coli BL21(DE3), purified (Glutathione Sepharose, 3C cleavage, SEC); not shown: GST, N-terminal, cleaved) MEAARPPPTAGKFVVVGGGIAGVTCAEQLATHFPSEDILLVTASPVIKAVTNFKQISKILEEFDVEEQSSTMLGKRFPNIKVIESGVKQLKSEEHCIVTEDGNQHVYKKLCLCAGAKPKLICEGNPYVLGIRDTDSAQEFQKQLTKAKRIMIIGNGGIALELVYEIEGCEVIWAIKDKAIGNTFFDAGAAEFLTSKLIAEKSEAKIAHKRTRYTTEGRKKEARSKSKADNVGSALGPDWHEGLNLKGTKEFSHKIHLETMCEVKKIYLQDEFRILKKKSFTFPRDHKSVTADTEMWPVYVELTNEKIYGCDFIVSATGVTPNVEPFLHGNSFDLGEDGGLKVDDHMHTSLPDIYAAGDICTTSWQLSPVWQQMRLWTQARQMGWYAAKCMAAASSGDSIDMDFSFELFAHVTKFFNYKVVLLGKYNAQGLGSDHELMLRCTKGREYIKVVMQNGRMMGAVLIGETDLEETFENLILNQMNLSSYGEDLLDPNIDIDYFD | binds | –
PYROXD1 D497A (enzyme, human, human PYROXD1 (UniProt Q8WU10) with D497A; source: E. coli BL21(DE3), purified (Glutathione Sepharose, 3C cleavage, SEC); not shown: GST, N-terminal, cleaved) MEAARPPPTAGKFVVVGGGIAGVTCAEQLATHFPSEDILLVTASPVIKAVTNFKQISKILEEFDVEEQSSTMLGKRFPNIKVIESGVKQLKSEEHCIVTEDGNQHVYKKLCLCAGAKPKLICEGNPYVLGIRDTDSAQEFQKQLTKAKRIMIIGNGGIALELVYEIEGCEVIWAIKDKAIGNTFFDAGAAEFLTSKLIAEKSEAKIAHKRTRYTTEGRKKEARSKSKADNVGSALGPDWHEGLNLKGTKEFSHKIHLETMCEVKKIYLQDEFRILKKKSFTFPRDHKSVTADTEMWPVYVELTNEKIYGCDFIVSATGVTPNVEPFLHGNSFDLGEDGGLKVDDHMHTSLPDIYAAGDICTTSWQLSPVWQQMRLWTQARQMGWYAAKCMAAASSGDSIDMDFSFELFAHVTKFFNYKVVLLGKYNAQGLGSDHELMLRCTKGREYIKVVMQNGRMMGAVLIGETDLEETFENLILNQMNLSSYGEDLLDPNIDIEAYFD | binds | –
PYROXD1 (Homo sapiens; W239A) (protein, full-length from HeLa cDNA, N-terminal GST cut off with 3C protease; E. coli BL21(DE3); FAD-containing) MEAARPPPTAGKFVVVGGGIAGVTCAEQLATHFPSEDILLVTASPVIKAVTNFKQISKILEEFDVEEQSSTMLGKRFPNIKVIESGVKQLKSEEHCIVTEDGNQHVYKKLCLCAGAKPKLICEGNPYVLGIRDTDSAQEFQKQLTKAKRIMIIGNGGIALELVYEIEGCEVIWAIKDKAIGNTFFDAGAAEFLTSKLIAEKSEAKIAHKRTRYTTEGRKKEARSKSKADNVGSALGPDAHEGLNLKGTKEFSHKIHLETMCEVKKIYLQDEFRILKKKSFTFPRDHKSVTADTEMWPVYVELTNEKIYGCDFIVSATGVTPNVEPFLHGNSFDLGEDGGLKVDDHMHTSLPDIYAAGDICTTSWQLSPVWQQMRLWTQARQMGWYAAKCMAAASSGDSIDMDFSFELFAHVTKFFNYKVVLLGKYNAQGLGSDHELMLRCTKGREYIKVVMQNGRMMGAVLIGETDLEETFENLILNQMNLSSYGEDLLDPNIDIEDYFD | – | Km (purified protein): 1472.1 ± 105.0 µM
PYROXD1 D500A (enzyme, human, human PYROXD1 (UniProt Q8WU10) with D500A; source: E. coli BL21(DE3), purified (Glutathione Sepharose, 3C cleavage, SEC); not shown: GST, N-terminal, cleaved) MEAARPPPTAGKFVVVGGGIAGVTCAEQLATHFPSEDILLVTASPVIKAVTNFKQISKILEEFDVEEQSSTMLGKRFPNIKVIESGVKQLKSEEHCIVTEDGNQHVYKKLCLCAGAKPKLICEGNPYVLGIRDTDSAQEFQKQLTKAKRIMIIGNGGIALELVYEIEGCEVIWAIKDKAIGNTFFDAGAAEFLTSKLIAEKSEAKIAHKRTRYTTEGRKKEARSKSKADNVGSALGPDWHEGLNLKGTKEFSHKIHLETMCEVKKIYLQDEFRILKKKSFTFPRDHKSVTADTEMWPVYVELTNEKIYGCDFIVSATGVTPNVEPFLHGNSFDLGEDGGLKVDDHMHTSLPDIYAAGDICTTSWQLSPVWQQMRLWTQARQMGWYAAKCMAAASSGDSIDMDFSFELFAHVTKFFNYKVVLLGKYNAQGLGSDHELMLRCTKGREYIKVVMQNGRMMGAVLIGETDLEETFENLILNQMNLSSYGEDLLDPNIDIEDYFA | binds | –
PYROXD1 F499A (enzyme, human, human PYROXD1 (UniProt Q8WU10) with F499A; source: E. coli BL21(DE3), purified (Glutathione Sepharose, 3C cleavage, SEC); not shown: GST, N-terminal, cleaved) MEAARPPPTAGKFVVVGGGIAGVTCAEQLATHFPSEDILLVTASPVIKAVTNFKQISKILEEFDVEEQSSTMLGKRFPNIKVIESGVKQLKSEEHCIVTEDGNQHVYKKLCLCAGAKPKLICEGNPYVLGIRDTDSAQEFQKQLTKAKRIMIIGNGGIALELVYEIEGCEVIWAIKDKAIGNTFFDAGAAEFLTSKLIAEKSEAKIAHKRTRYTTEGRKKEARSKSKADNVGSALGPDWHEGLNLKGTKEFSHKIHLETMCEVKKIYLQDEFRILKKKSFTFPRDHKSVTADTEMWPVYVELTNEKIYGCDFIVSATGVTPNVEPFLHGNSFDLGEDGGLKVDDHMHTSLPDIYAAGDICTTSWQLSPVWQQMRLWTQARQMGWYAAKCMAAASSGDSIDMDFSFELFAHVTKFFNYKVVLLGKYNAQGLGSDHELMLRCTKGREYIKVVMQNGRMMGAVLIGETDLEETFENLILNQMNLSSYGEDLLDPNIDIEDYAD | binds | –
PYROXD1 Y498A (enzyme, human, human PYROXD1 (UniProt Q8WU10) with Y498A; source: E. coli BL21(DE3), purified (Glutathione Sepharose, 3C cleavage, SEC); not shown: GST, N-terminal, cleaved) MEAARPPPTAGKFVVVGGGIAGVTCAEQLATHFPSEDILLVTASPVIKAVTNFKQISKILEEFDVEEQSSTMLGKRFPNIKVIESGVKQLKSEEHCIVTEDGNQHVYKKLCLCAGAKPKLICEGNPYVLGIRDTDSAQEFQKQLTKAKRIMIIGNGGIALELVYEIEGCEVIWAIKDKAIGNTFFDAGAAEFLTSKLIAEKSEAKIAHKRTRYTTEGRKKEARSKSKADNVGSALGPDWHEGLNLKGTKEFSHKIHLETMCEVKKIYLQDEFRILKKKSFTFPRDHKSVTADTEMWPVYVELTNEKIYGCDFIVSATGVTPNVEPFLHGNSFDLGEDGGLKVDDHMHTSLPDIYAAGDICTTSWQLSPVWQQMRLWTQARQMGWYAAKCMAAASSGDSIDMDFSFELFAHVTKFFNYKVVLLGKYNAQGLGSDHELMLRCTKGREYIKVVMQNGRMMGAVLIGETDLEETFENLILNQMNLSSYGEDLLDPNIDIEDAFD | binds | –
